Assay [1] deals with T1, MERS Receptor Binding Domain (RBD) protein (MERS virus, UniProt K9N5Q8 367-606).
T1 construct: also called Middle East Respiratory Syndrome (MERS) virus
T1 sequence: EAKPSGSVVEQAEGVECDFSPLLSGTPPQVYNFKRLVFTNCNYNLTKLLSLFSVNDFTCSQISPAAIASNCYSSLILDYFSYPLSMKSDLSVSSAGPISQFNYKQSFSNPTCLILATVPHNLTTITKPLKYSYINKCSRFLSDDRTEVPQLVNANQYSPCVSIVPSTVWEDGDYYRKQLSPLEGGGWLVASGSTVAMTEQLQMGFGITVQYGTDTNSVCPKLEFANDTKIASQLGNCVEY
The assay is described as follows: SPR; clone listed as COV2 only at the 21st table, row 23, column 3.

For assay [2], the target named is T2, SARS-CoV-1 Receptor Binding Domain (RBD) protein (SARS-CoV-1, UniProt P59594 306-527).
T2 construct: also called SARS1
The assay is described as above.

In assay [3] the target is SARS-CoV-2 Receptor Binding Domain (RBD) protein (SARS-CoV-2, UniProt P0DTC2 319-541).
Assay [4] deals with T1, MERS Receptor Binding Domain (RBD) …. The assay is described as follows: SPR; clone listed as COV2 only at the 21st table, row 4, column 3.
For assay [5], the target named is T2, SARS-CoV-1 Receptor Binding Domain …. The assay is described as above.
Assay [6] concerns the target T1, MERS Receptor Binding Domain (RBD) …. Briefly: SPR; clone listed as COV2 only at the 21st table, row 19, column 3.
Assay [7] deals with T2, SARS-CoV-1 Receptor Binding Domain …. The description is as above.
Assay [8] has as its target T1, MERS Receptor Binding Domain (RBD) …. The assay is described as follows: SPR; clone listed as COV2 only at the 21st table, row 15, column 3.
Assay [9] has as its target T2, SARS-CoV-1 Receptor Binding Domain …. Described as above.
The target of assay [10] is T1, MERS Receptor Binding Domain (RBD) …. Briefly: SPR; clone listed as COV2 only at the 21st table, row 21, column 3.
The target in assay [11] is T2, SARS-CoV-1 Receptor Binding Domain …. The assay is described as above.
The target of assay [12] is T1, MERS Receptor Binding Domain (RBD) …. The assay is described as follows: SPR; clone listed as COV2 only at the 21st table, row 14, column 3.
Assay [13] addresses T2, SARS-CoV-1 Receptor Binding Domain …. The description is as above.
For assay [14], the target named is T1, MERS Receptor Binding Domain (RBD) …. The assay is described as follows: SPR; clone listed as COV2 only at the 21st table, row 17, column 3.
In assay [15] the target is T2, SARS-CoV-1 Receptor Binding Domain …. Described as above.
Assay [16] concerns the target T1, MERS Receptor Binding Domain (RBD) …. Briefly: SPR; clone listed as COV2 only at the 21st table, row 7, column 3.
Assay [17] has as its target T2, SARS-CoV-1 Receptor Binding Domain …. The description is as above.
Assay [18] has as its target T1, MERS Receptor Binding Domain (RBD) …. Briefly: SPR; clone listed as COV2 only at the 21st table, row 16, column 3.
Assay [19] concerns the target T2, SARS-CoV-1 Receptor Binding Domain …. Described as above.
The target of assay [20] is T1, MERS Receptor Binding Domain (RBD) …. Briefly: SPR; clone listed as COV2 only at the 21st table, row 25, column 3.
The target of assay [21] is T2, SARS-CoV-1 Receptor Binding Domain …. The assay is described as above.
Assay [22] addresses T1, MERS Receptor Binding Domain (RBD) …. Briefly: SPR; clone listed as COV2 only at the 21st table, row 22, column 3.
The target of assay [23] is T2, SARS-CoV-1 Receptor Binding Domain …. The description is as above.
The target of assay [24] is T1, MERS Receptor Binding Domain (RBD) …. The assay is described as follows: SPR; clone listed as COV2 only at the 21st table, row 24, column 3.
The target in assay [25] is T2, SARS-CoV-1 Receptor Binding Domain …. The assay is described as above.

B1: COVID19_P22_F07 (scFv, V domains shown)
VH: QVQLVQSGAEVKKPGSSVKVSCKASGGTFSSYAISWVRQAPGQGLEWMGGIIPIFGSTASYAQKFQGRVTITADESTSTAYMELSSLRSEDTAVYYCAGEWGISTPMDVWGQGTLVTVSS
VL: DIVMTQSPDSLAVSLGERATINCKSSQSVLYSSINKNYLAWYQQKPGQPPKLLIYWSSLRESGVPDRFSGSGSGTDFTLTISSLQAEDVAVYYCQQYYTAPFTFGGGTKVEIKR
B1: the binding result in assay [1] was “no binding (tested: up to 300 nM)”. The binding result in assay [2] is on record as “no binding (tested: up to 300 nM)”. In assay [3], this molecule gave a Kd of 6.58 nM, a koff of 0.00041 s⁻¹ and a kon of 63000 M⁻¹ s⁻¹.

B2: COVID19_P22_F04 (scFv, V domains shown)
VH: QVQLVQSGAEVKKPGSSVKVSCKASGGGFITYWIGWVRQAPGQGLEWMGIIYPGDGEARYSQKFQGRVTITADESTSTAYMELSSLRSEDTAVYYCAGGSGISTPMDVWGQGTLVTVSS
VL: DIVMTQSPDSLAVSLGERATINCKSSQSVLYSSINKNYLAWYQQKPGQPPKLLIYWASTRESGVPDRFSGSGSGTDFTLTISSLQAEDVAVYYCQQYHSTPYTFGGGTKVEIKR
As for B2, the binding result in assay [4] is recorded as “no binding (tested: up to 300 nM)”. For the same molecule, the binding result in [5] was “no binding (tested: up to 300 nM)”. In [3], this molecule returned a Kd of 30.6 nM, a koff of 0.0085 s⁻¹ and a kon of 280000 M⁻¹ s⁻¹.

B3: COVID19_P09_E11 (scFv, V domains shown)
VH: QVQLVQSGAEVKKPGSSVKVSCKASGGTFSNHAISWVRQAYGQGLEWMGIIYPGDGTTRYSQKFQGRVTITADESTSTAYMELSSLRSEDTAVYYCAGGSGISTPMDVWGQGTLVTVSS
VL: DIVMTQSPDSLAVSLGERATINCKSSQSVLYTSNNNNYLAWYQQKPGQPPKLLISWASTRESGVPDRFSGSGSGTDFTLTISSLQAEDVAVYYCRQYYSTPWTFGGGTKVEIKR
B3: in [6], the binding result is reported as “no binding (tested: up to 300 nM)”. The binding result in assay [7] is listed as “no binding (tested: up to 300 nM)”. In [3], this molecule returned a Kd of 0.49 nM, a koff of 0.000123 s⁻¹ and a kon of 249000 M⁻¹ s⁻¹.

B4: COVID19_P21_A08 (scFv, V domains shown)
VH: QVQLVQSGAEVKKPGSSVKVSCKASGGTFITYWIGWVRQAPGQGLEWMGWINPNSGGTNYAQKFQGRVTITADESTSTAYMELSSLRSEDTAVYYCAGGSGISTPMDVWGQGTLVTVSS
VL: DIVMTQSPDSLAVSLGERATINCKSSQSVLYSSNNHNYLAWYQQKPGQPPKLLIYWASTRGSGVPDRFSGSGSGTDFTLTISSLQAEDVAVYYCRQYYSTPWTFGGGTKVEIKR
Consider B4, for which the binding result in assay [8] is “no binding (tested: up to 300 nM)”. For the same molecule, the binding result in [9] is reported as “no binding (tested: up to 300 nM)”. Moreover, in [3], the Kd was found to be 13.3 nM, the koff amounted to 0.000496 s⁻¹ and the kon was 37300 M⁻¹ s⁻¹.

B5: COVID19_P10_G03 (scFv, V domains shown)
VH: QVQLVQSGAEVKKPGSSVKVSCKASGGTFSNSSINWVRQAPGQGLEWMGRINPNSGGTNYAQKFQGRVTITADESTSTAYMELSSLRSEDTAVYYCAGGSGISTPMDVWGQGTLVTVSS
VL: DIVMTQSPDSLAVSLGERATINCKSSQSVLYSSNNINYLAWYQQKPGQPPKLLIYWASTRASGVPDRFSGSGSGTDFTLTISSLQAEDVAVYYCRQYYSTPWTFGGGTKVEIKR
In the case of B5, in assay [10], the binding result was “no binding (tested: up to 300 nM)”. Also, the binding result in [11] is “no binding (tested: up to 300 nM)”. Besides, in assay [3], the Kd turned out to be 40.4 nM, the koff was determined as 0.00177 s⁻¹ and the association rate constant (kon) is 43800 M⁻¹ s⁻¹.

B6: COVID19_P10_C05 (scFv, V domains shown)
VH: QVQLVQSGAEVKKPGSSVKVSCKASGGTFITYWIGWVRQAPGQGLEWMGIIYPGDGEARYSQKFQGRVTITADESTSTAYMELSSLRSEDTAVYYCAGSGGISTPMDVWGQGTLVTVSS
VL: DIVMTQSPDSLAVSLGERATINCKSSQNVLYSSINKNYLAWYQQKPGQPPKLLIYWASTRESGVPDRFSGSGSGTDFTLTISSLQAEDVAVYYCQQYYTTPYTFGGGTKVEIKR
For B6, the binding result in assay [12] is on record as “no binding (tested: up to 300 nM)”. The binding result in assay [13] is “no binding (tested: up to 300 nM)”. For the same molecule, in assay [3], the dissociation constant (Kd) was 33.8 nM, the koff is 0.0156 s⁻¹ and the kon turned out to be 462000 M⁻¹ s⁻¹.

B7: COVID19_P10_D08 (scFv, V domains shown)
VH: QVQLVQSGAEVKKPGSSVKVSCKASGGTFNSHAISWVRQAPGQGLEWMGWINPNSGATNYAQKFQGRVTITADESTSTAYMELSSLRSEDTAVYYCAGGSGISTPVGVWGQGTLVTVSS
VL: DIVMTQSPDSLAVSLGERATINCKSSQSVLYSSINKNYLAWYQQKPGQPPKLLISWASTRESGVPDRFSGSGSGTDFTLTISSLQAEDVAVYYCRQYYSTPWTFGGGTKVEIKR
As for B7, the binding result in [14] was “no binding (tested: up to 300 nM)”. The binding result in assay [15] is listed as “no binding (tested: up to 300 nM)”. In assay [3], this molecule had a Kd of 15.2 nM, a koff of 0.00107 s⁻¹ and a kon of 70700 M⁻¹ s⁻¹.

B8: COVID19_P22_E06 (scFv, V domains shown)
VH: QVQLVQSGAEVKKPGSSVKVSCKASGGGFITYWIGWVRQAPGQGLEWMGIIYPGDSETRYSQKFQGRVTITADESTSTAYMELSSLRSEDTAVYYCAGGSGISSDMDVWGQGTLVTVSS
VL: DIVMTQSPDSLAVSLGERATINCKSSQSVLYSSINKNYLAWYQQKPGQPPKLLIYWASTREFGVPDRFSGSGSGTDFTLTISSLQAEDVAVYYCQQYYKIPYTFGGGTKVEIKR
As for B8, in assay [16], the binding result is given as “no binding (tested: up to 300 nM)”. Also, the binding result in assay [17] was “no binding (tested: up to 300 nM)”. In assay [3], this molecule gave a Kd of 42.7 nM, a koff of 0.0057 s⁻¹ and a kon of 130000 M⁻¹ s⁻¹.

B9: COVID19_P09_H09 (scFv, V domains shown)
VH: QVQLVQSGAEVKKPGSSVKVSCKASGGTFITYWIYWVRQAPGQGLEWMGIIYPGDGEARYSQKFYGRVTITADESTSTAYMELSSLRSEDTAVYYCAGSGGISTPMDVWGQGTLVTVSS
VL: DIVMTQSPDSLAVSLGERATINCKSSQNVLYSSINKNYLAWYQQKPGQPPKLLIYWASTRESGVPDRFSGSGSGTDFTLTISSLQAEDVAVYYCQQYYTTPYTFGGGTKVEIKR
For B9, in assay [18], the binding result is “no binding (tested: up to 300 nM)”. Moreover, the binding result in [19] is on record as “no binding (tested: up to 300 nM)”. For the same molecule, in assay [3], the Kd is 35.2 nM, the koff came out at 0.0154 s⁻¹ and the on-rate constant (kon) was found to be 438000 M⁻¹ s⁻¹.

B10: COVID19_P09_B07 (scFv, V domains shown)
VH: QVQLVQSGAEVKKPGSSVKVSCKASGGTFSSYAISWVRQAPGQGLEWMGGIIPTLGTANYAQKFQGRVTITADESTSTAYMELSSLRSEDTAVYYCAGSWGISTPMDVWGQGTLVTVSS
VL: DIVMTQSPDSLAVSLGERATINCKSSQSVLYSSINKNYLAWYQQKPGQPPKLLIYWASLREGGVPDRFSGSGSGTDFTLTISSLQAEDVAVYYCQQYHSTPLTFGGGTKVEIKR
On to B10, for which the binding result in assay [20] is listed as “no binding (tested: up to 300 nM)”. The binding result in assay [21] is listed as “no binding (tested: up to 300 nM)”. In assay [3], this molecule registered a Kd of 3.66 nM, a koff of 0.000533 s⁻¹ and a kon of 146000 M⁻¹ s⁻¹.

B11: COVID19_P22_E12 (scFv, V domains shown)
VH: QVQLVQSGAEVKKPGSSVKVSCKASGGTFSSYAINWVRQAPGQGLEWMGGIIPVLHTVDYAQRLQGRVTITADESTSTAYMELSSLRSEDTAVYYCAGEWGISTPMDVWGQGTLVTVSS
VL: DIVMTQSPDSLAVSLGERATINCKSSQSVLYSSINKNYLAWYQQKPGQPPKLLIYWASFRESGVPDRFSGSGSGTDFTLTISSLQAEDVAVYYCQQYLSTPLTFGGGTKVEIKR
For the molecule B11, the binding result in assay [22] is given as “no binding (tested: up to 300 nM)”. The binding result in assay [23] is “no binding (tested: up to 300 nM)”. In addition, in assay [3], the Kd stood at 44 nM, the koff was 0.0089 s⁻¹ and the kon amounted to 200000 M⁻¹ s⁻¹.

B12: COVID19_P09_H08 (scFv, V domains shown)
VH: QVQLVQSGAEVKKPGSSVKVSCKASGGTFSSYAISWVRQAPGQGLEWMGGIIPIFGTTNYAQKFQGRVTITADESTSTAYMELSSLRSEDTAVYYCAGEWGISTPMDVWGQGTLVTVSS
VL: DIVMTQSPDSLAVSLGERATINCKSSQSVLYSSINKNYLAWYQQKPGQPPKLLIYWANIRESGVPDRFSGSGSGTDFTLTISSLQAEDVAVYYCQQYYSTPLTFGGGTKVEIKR
For the molecule B12, the binding result in assay [24] is recorded as “no binding (tested: up to 300 nM)”. Further, the binding result in assay [25] is listed as “no binding (tested: up to 300 nM)”. In [3], this molecule had a Kd of 3.25 nM, a koff of 0.00039 s⁻¹ and a kon of 120000 M⁻¹ s⁻¹.
